The values below come from US20230070731A1, “COMPOSITIONS FOR SMALL MOLECULE CONTROL OF PRECISE BASE EDITING OF TARGET NUCLEIC ACIDS AND METHODS OF USE THEREOF” (THE TRUSTEES OF THE UNIVERSITY OF PENNSYLVANIA, priority 2020, published 2023).

In this experiment the test system is BL21(DE3) E. coli. Briefly: Bacterial DNA deaminase rifampicin mutagenesis assay (acquired rifampin resistance). The format is cell-based. As to conditions: expression in E. coli. The procedure: In initial studies, a foreign protein/domain was inserted into an enhanced hyperactive version of AID described in U.S. patent application Ser. No. 16/025,261 (See for example, SEQ ID NO: 20 of the '261 patent application) which is incorporated herein by reference as though set forth in full. This mutant version of the human DNA deaminase AID, involved in antibody maturation was assessed and the loop regions which appeared to be tolerant to insertion of control elements (e.g., Green Fluorescent Protein GFP fragments) were identified as described hereinbelow. Several candidate locations for insertion were identified. We used an E. coli-based rifampin mutagenesis assay to evaluate activity (See Kohli et al., J Biol Chem. (2009) 284:pages 22898-904). In this assay we measure the activity level of a mutator by measuring how many E. coli can be turned resistant to the antibiotic rifampin when the enzyme is turned on.
The mutation frequency of various DNA deaminases, including insertion constructs, were determined using a modified version of previously reported rifampin mutagenesis assay (Kohli, JBC 2009). […] The mutation frequencies were then calculated by the ratio of rifampicin resistant colonies to total population. […]

B1: AID*: hyperactive AID variant (K10E, F42E, T82I, D118A, R119G, K120R, A121R, H130A, R131E, F141Y, F145E, E156G) with N-terminal MBP tag (protein, UniProt Q9GZX7 1-198, looked up, variant K10E F42E T82I D118A R119G K120R A121R H130A R131E F141Y F145E E156G)
Single-stranded DNA cytosine …: MDSLLMNRREFLYQFKNVRWAKGRRETYLCYVVKRRDSATSESLDFGYLRNKNGCHVELLFLRYISDWDLDPGRCYRVTWFISWSPCYDCARHVADFLRGNPNLSLRIFTARLYFCEAGRREPEGLRRLAEAGVQIAIMTYKDYEYCWNTFVENHGRTFKAWEGLHENSVRLSRQLRRILLPLYEVDDLRDAFRTLGL
modifications: N-terminal MBP tag
Take B1: the “Rif^R increase relative to catalytically inactive mutant AID(E58A)” value is listed as 265 fold.
